Reference: the supplement of paper PMC12764529
± gives the half width of the 95% confidence interval.

How the values were obtained:
[1] = folding stability dG unfold from trypsin proteolysis; higher = more stable
Procedure, shortened: (§1)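 Only designs with AlphaFold2 dimer inter-PAE above 15 were retained; each was a mini-protein under 80 residues with no cysteine, in a PA-tagged cDNA display construct. After digestion with trypsin and chymotrypsin and sequencing, K50 was inferred by Bayesian fitting of counts, and unfolding free energy was derived per protease or combined against a sequence-predicted unfolded-state K50 and a shared folded-state K50.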

[2] = folding stability dG unfold from chymotrypsin proteolysis; higher = more stable
Procedure, shortened: as §1

[3] = folding stability dG unfold (combined trypsin and chymotrypsin); higher = more stable
Procedure, shortened: as §1

Row | Sequence | folding stability dG unfold [1] | folding stability dG unfold [2] | folding stability dG unfold [3]
1 | SAGSMKIKIKAKVPPGPYRIRIMWQYPGGDFKPVEEETVDPGQEVKIPIEFPDGKPFDPDNIRVMIEPPSAG [r5_287_TrROS] | 1.44 ± 0.14 kcal/mol | 2.47 ± 0.097 kcal/mol | 2.08 ± 0.25 kcal/mol
2 | SAKKVKIEIKNKETNKIYTIEIKEDGKVTIKNKETGEEIEVEINGKKITFPPGASIDEIIKKLEEALKKSAG [r14_561_TrROS_Hall] | 1.72 ± 0.16 kcal/mol | 2.77 ± 0.12 kcal/mol | 2.56 ± 0.31 kcal/mol
3 | SAGGSAGGSAGGSPVRVKLKFKKKFTVLLPLTDEDDEILDVEKEYTVEITLEVTLPPDLSAGGSAGGSAGGS [r4_326_TrMRF] | 3.26 ± 0.15 kcal/mol | 4.34 ± 0.2 kcal/mol | 4.01 ± 0.48 kcal/mol
4 | SAGGSAGGSAGMVTETTVSRLPDGTVTTTTTEYVVHPDGSLEPVRERTTTTPVPPDVPAASAGGSAGGSAGG [r11_440_JUSTAS] | 0.396 ± 0.051 kcal/mol | 1.142 ± 0.011 kcal/mol | 0.897 ± 0.037 kcal/mol
5 | SAEIPPDLIAVILGIEPYRFGERDFLVITAAIFRPEEPDAEVTLYTIVIEGDKIVSITPSRYRVPPEALSAG [r14_651_TrMRF] | 2.92 ± 0.098 kcal/mol | 3.86 ± 0.047 kcal/mol | 3.55 ± 0.11 kcal/mol
6 | SMKIKIEKVEDGYYKIKIYDKKTKKEYTIIVPKNMKPGQVELVNRNGKKITMTLEEIKKLLPPGAEVEIVSA [r9_250_TrROS_Hall] | 2.01 ± 0.074 kcal/mol | 2.14 ± 0.051 kcal/mol | 2.21 ± 0.1 kcal/mol
7 | SAGGSMSAEELREKIAADPRISLDDVTVTVTRTPDSVTVTVTLKDPNDPVYVEAEERARALFAELASAGGSA [r2_3_JUSTAS] | 0.704 ± 0.024 kcal/mol | -1 ± 0.24 kcal/mol | 0.16 ± 0.049 kcal/mol
8 | SAGGSEEIKKLLASGQLDEVIALLKKKGYENVTVTPDPRKPVVTINVTKTDPKTGKKKTTTITIPTGLSAGG [r13_359_JUSTAS] | 3.62 ± 0.1 kcal/mol | 4.03 ± 0.052 kcal/mol | 3.92 ± 0.086 kcal/mol
9 | SAGGSAGGSDPSEVRLTFTVTVELTFDAVLFYEPGTGRLVAVAPYLRVEVEVEVTLTFPADALSAGGSAGGS [r12_600_TrMRF] | 3.17 ± 0.096 kcal/mol | 5.04 ± 0.11 kcal/mol | 4.63 ± 0.21 kcal/mol
10 | SAGPTFEIVSVEEVDGKTYIRIRLPNGRIVTARITEVKRLGPDGKLYIKVEPGMSEEELKALLPPEVLKSAG [r5_462_TrROS_Hall] | 2.29 ± 0.053 kcal/mol | 2.825 ± 0.02 kcal/mol | 2.63 ± 0.042 kcal/mol
11 | SAGGSAGGKVKFEIPNAKITSVEYDPNPGLLKVEFELPNGLKLTAIFKIDKDKAILAKIEISPESAGGSAGG [r6_718_TrMRF] | 2.57 ± 0.071 kcal/mol | 3.51 ± 0.045 kcal/mol | 3.23 ± 0.081 kcal/mol
12 | SAGGSAKPDLVRTGPLLLPTAVVLPSVHFADPDVSVSLFRTPNGPPYLALAFIDPETGEPHIVLFPSAGGSA [r15_84_TrMRF] | 0.934 ± 0.036 kcal/mol | 1.71 ± 0.07 kcal/mol | 1.44 ± 0.09 kcal/mol
13 | SAGMSEEERKAAEEASKPPVKVETLTVTVLVEVDGKLYLVRATITRVVLPDGSIVTELKIEIIPLEDLSAGG [r19_11_TrROS_Hall] | 3.05 ± 0.21 kcal/mol | 4.26 ± 0.33 kcal/mol | 3.88 ± 0.3 kcal/mol
14 | SAKKYIIRVKVKINGKEYEIEIEADSLEEALAKLKEELKKLFPGEKIEEVKIEVYDAKTGEKKEITLKLSAG [r14_54_TrROS_Hall] | 2.76 ± 0.12 kcal/mol | 4.2 ± 0.16 kcal/mol | 4 ± 0.35 kcal/mol
15 | SAGGSAGGSAKKKVEIKIEIEEVTNKDGKKYIKIKIEVKVSEEVKKELADALKKAGFKVEPSAGGSAGGSAG [r3_157_TrROS_Hall] | 1.54 ± 0.091 kcal/mol | 2.43 ± 0.093 kcal/mol | 2.17 ± 0.16 kcal/mol
16 | SAGGSTTVTIETYESEKFPNGSFKTSTKKIVITNTLSPDEELTLPNGKKIPASLSAEEIAEAILKSESAGGS [r16_440_JUSTAS] | -0.849 ± 0.23 kcal/mol | 0.522 ± 0.11 kcal/mol | 0.151 ± 0.098 kcal/mol
17 | SAGGSAGGSAGGMKVYRIGPDLYLVENEDGSLRIYNRDTGKVFTFKPGETITITIPPELLSAGGSAGGSAGG [r7_299_TrROS_Hall] | 2.18 ± 0.075 kcal/mol | 2.79 ± 0.059 kcal/mol | 2.7 ± 0.11 kcal/mol
18 | SAGMTFKNPGSDKTLTYEPETGAITLHNGDSVSTLPLPPGTSFTVTVDPEKGVVTITVPETGATITLPLSAG [r5_858_JUSTAS] | 1.07 ± 0.028 kcal/mol | 0.248 ± 0.22 kcal/mol | 0.803 ± 0.11 kcal/mol
19 | SAGGSDTVVLDFTVTVDGKPYTVRVTLTRNPPTGEITVPVEIESANPEDAVPAREVADALVERLLSSAGGSA [r2_259_TrMRF] | 1.21 ± 0.028 kcal/mol | 1.78 ± 0.075 kcal/mol | 1.56 ± 0.076 kcal/mol
20 | SAGGSAGGSDRYLAVVFVRRADDPTPEVRTFTGIRTLADVERAVADALPADVAEVRIVVFPVRSAGGSAGGS [r20_29_TrMRF] | 1.59 ± 0.055 kcal/mol | 1.82 ± 0.12 kcal/mol | 1.67 ± 0.12 kcal/mol
21 | SIEIYEGPEEAEEMAEENGTPVIPIPPDMNLSEILKQLKNQPGLPPDQKIVIVIQWEPGQWYVIRIPIKPSA [r9_314_TrROS] | 2.05 ± 0.059 kcal/mol | 2.734 ± 0.022 kcal/mol | 2.53 ± 0.091 kcal/mol
